By Kd is commonly meant the concentration at which binding is half-saturated. A lower Kd goes with a tighter complex.

The target in data set [1] is T1, human Argonaute-2 loaded with miR-122 (hAgo2:miR-122) (Homo sapiens, UniProt Q9UKV8 1-859). Briefly: EMSA. (In EMSA bound probe runs differently from free probe, usually more slowly.)
In data set [2] the target is T1, human Argonaute-2 loaded with miR-122 …. Briefly: EMSA. The source holds these as a separate data set.

Like-named read-outs stand apart in the source and are kept apart here.

T1 sequence (Q9UKV8 whole entry): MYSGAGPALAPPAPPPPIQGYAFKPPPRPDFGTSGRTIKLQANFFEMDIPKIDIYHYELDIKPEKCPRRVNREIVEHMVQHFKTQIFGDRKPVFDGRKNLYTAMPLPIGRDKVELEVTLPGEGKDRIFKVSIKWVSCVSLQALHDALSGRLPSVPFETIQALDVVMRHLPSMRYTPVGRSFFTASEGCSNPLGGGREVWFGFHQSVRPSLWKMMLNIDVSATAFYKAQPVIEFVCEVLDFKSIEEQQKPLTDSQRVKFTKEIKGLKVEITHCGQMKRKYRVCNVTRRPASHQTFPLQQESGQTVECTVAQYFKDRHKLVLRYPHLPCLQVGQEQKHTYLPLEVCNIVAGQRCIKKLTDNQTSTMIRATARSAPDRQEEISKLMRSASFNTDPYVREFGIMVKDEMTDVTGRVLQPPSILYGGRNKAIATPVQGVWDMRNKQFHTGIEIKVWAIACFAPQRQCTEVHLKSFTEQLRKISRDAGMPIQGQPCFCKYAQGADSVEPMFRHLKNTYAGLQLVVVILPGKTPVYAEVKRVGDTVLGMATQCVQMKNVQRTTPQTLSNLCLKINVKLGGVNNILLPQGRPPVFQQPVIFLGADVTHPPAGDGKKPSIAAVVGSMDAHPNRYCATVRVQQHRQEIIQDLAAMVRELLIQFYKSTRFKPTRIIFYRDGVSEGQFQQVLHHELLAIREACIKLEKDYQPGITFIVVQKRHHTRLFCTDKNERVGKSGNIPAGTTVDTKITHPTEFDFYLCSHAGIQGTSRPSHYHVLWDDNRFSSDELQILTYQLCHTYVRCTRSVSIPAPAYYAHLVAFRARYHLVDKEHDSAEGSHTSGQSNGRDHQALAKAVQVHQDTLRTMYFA

B1: miR-122 guide / HCV S2p3,4 1-42 target (mixed)
RNA 1: UGGAGUGUGACAAUGGUGUUUGU
RNA 2: ACCUGCCCCUAAUAGGGGCGACACUCCGCCAUGAAUCACAGC
modifications: 5'-phosphate on miR-122 guide
B1: in data set [1], binding was characterised by a dissociation constant (Kd) of 0.063 ± 0.01 nM.

B2: miR-122 guide / HCV 1-42 WT target (mixed)
RNA 1: UGGAGUGUGACAAUGGUGUUUGU
RNA 2: ACCUGCCCCUAAUAGGGGCGACACUCCGCCAUGAAUCACUCC
modifications: 5'-phosphate on miR-122 guide
The molecule B2 showed a Kd in data set [2] of 0.25 ± 0.031 nM.

These data come from PMC6547439.
